Source: paper PMC7078210

What was measured:
[1] = biological target: NtMOC1 (N108-S275, I112V/Q162K/E235Q/E239Q) (Nicotiana tabacum); assay: crystal structure; HJ-free (apo) MOC1, 10 mg/ml with 1 mM MgCl2, sitting-drop vapor diffusion at 18 °C
[2] = biological target: NtMOC1 (N108-S275, I112V/Q162K/E235Q/E239Q) (Nicotiana tabacum); assay: crystal structure; MOC1 with 1 mM MgCl2 mixed with Holliday junction DNA (9-bp arms) at a molar ratio of 1:1.2, co-crystallised
NtMOC1 D116A = biological target: T1, NtMOC1 D116A (Nicotiana tabacum, UniProt A0A1S4BMC2 108-275, D116A); assay: EMSA; 5 mM EDTA; EMSA: 50 mM Tris-HCl pH 8.0, 1 mM DTT, 5 mM EDTA, 200 ng/ml heparin (so in the source), 10% glycerol, 25 C, 30 min; HJ 250 nM, protein 0-1000 nM; 6% native PAGE, no MgCl2; conditions: protein: recombinant; tags: 6xHis N-term, removed (DrICE); chain copies: 2; label: none (GelRed stain); four-way junction of 4 strands, 28 nt each, 2-bp homologous core
T1 sequence: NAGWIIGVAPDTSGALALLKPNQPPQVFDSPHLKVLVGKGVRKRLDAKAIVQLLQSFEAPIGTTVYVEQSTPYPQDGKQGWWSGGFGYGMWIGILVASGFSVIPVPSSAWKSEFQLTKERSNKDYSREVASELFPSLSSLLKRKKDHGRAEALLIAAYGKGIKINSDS

NtMOC1 D253A = biological target: T2, NtMOC1 D253A (Nicotiana tabacum, UniProt A0A1S4BMC2 108-275, D253A); assay: as above; conditions: protein: recombinant; tags: 6xHis N-term, removed (DrICE); chain copies: 2; label: none (GelRed stain); four-way junction of 4 strands, 28 nt each, 2-bp homologous core
T2 sequence: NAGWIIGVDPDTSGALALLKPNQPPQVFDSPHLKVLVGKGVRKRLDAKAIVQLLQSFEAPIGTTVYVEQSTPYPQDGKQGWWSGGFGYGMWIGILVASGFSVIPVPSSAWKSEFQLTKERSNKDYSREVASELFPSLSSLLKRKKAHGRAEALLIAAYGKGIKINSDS

NtMOC1 E258A = biological target: T3, NtMOC1 E258A (Nicotiana tabacum, UniProt A0A1S4BMC2 108-275, E258A); assay: as above; conditions: protein: recombinant; tags: 6xHis N-term, removed (DrICE); chain copies: 2; label: none (GelRed stain); four-way junction of 4 strands, 28 nt each, 2-bp homologous core
T3 sequence: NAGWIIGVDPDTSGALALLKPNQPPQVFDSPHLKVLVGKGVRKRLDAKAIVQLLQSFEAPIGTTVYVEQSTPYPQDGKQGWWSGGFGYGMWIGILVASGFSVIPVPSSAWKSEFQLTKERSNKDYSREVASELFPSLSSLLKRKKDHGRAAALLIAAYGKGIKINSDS

NtMOC1 E175A = biological target: T4, NtMOC1 E175A (Nicotiana tabacum, UniProt A0A1S4BMC2 108-275, E175A); assay: as above; conditions: protein: recombinant; tags: 6xHis N-term, removed (DrICE); chain copies: 2; label: none (GelRed stain); four-way junction of 4 strands, 28 nt each, 2-bp homologous core
T4 sequence: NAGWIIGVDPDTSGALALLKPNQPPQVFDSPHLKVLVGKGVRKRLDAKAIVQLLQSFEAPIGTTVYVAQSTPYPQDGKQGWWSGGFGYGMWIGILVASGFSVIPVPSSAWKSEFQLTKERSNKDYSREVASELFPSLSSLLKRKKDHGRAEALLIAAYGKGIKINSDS

NtMOC1 D118A = biological target: T5, NtMOC1 D118A (Nicotiana tabacum, UniProt A0A1S4BMC2 108-275, D118A); assay: as above; conditions: protein: recombinant; tags: 6xHis N-term, removed (DrICE); chain copies: 2; label: none (GelRed stain); four-way junction of 4 strands, 28 nt each, 2-bp homologous core
T5 sequence: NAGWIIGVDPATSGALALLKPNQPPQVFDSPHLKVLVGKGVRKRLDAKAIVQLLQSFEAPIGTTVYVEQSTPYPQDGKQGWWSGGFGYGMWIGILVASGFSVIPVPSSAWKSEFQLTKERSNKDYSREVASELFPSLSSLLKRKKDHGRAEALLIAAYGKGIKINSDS

NtMOC1 Y180A = biological target: T6, NtMOC1 Y180A (Nicotiana tabacum, UniProt A0A1S4BMC2 108-275, Y180A); assay: EMSA; 5 mM EDTA; little effect; EMSA: 50 mM Tris-HCl pH 8.0, 1 mM DTT, 5 mM EDTA, 200 ng/ml heparin (so in the source), 10% glycerol, 25 C, 30 min; HJ 250 nM, protein 0-1000 nM; 6% native PAGE, no MgCl2; conditions: protein: recombinant; tags: 6xHis N-term, removed (DrICE); chain copies: 2; label: none (GelRed stain); four-way junction of 4 strands, 28 nt each, 2-bp homologous core
T6 sequence: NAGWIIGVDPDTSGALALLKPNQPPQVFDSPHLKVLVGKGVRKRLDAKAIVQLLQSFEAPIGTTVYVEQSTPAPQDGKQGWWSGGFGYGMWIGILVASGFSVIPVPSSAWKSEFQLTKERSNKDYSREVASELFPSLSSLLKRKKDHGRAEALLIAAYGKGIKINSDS

## NtMOC1 (N108-S275, I112V/Q162K/E235Q/E239Q) (domain or fragment)
[1]
  stoichiometry N: 2
[2]
  stoichiometry N: 2

B1: X2 (CCGG) HJ (structured_DNA)
DNA 1: GGGCAAAGATGTCCCTCTGTTGTAATCG
DNA 2: CCAGTGCCTTGCTGGGACATCTTTGCCC
DNA 3: TAGACAGCTCCATCCAGCAAGGCACTGG
DNA 4: CGATTACAACAGAGGATGGAGCTGTCTA
NtMOC1 D116A
  binding result: binds
NtMOC1 D253A
  binding result: binds
NtMOC1 E258A
  binding result: binds
NtMOC1 E175A
  binding result: binds
NtMOC1 D118A
  binding result: binds
NtMOC1 Y180A
  binding result: binds
